The values below come from article PMC9263151, “Structural and biochemical analyses of the flagellar expression regulator DegU from Listeria monocytogenes”.

Series [1] deals with DNA-binding domain of Listeria monocytogenes DegU (lmDegUDBD) (Listeria monocytogenes ATCC 15313) (UniProt Q6DL91). Description: cross-linking; 5 μg protein in 20 mM Hepes pH 7.4, 300 mM sodium chloride, 5 mM β-mercaptoethanol with EDC and sulfo-NHS, 5 min at room temperature; SDS-PAGE, Coomassie staining.
The target is the same in series [2]. The experiment in a line: crystal structure; lmDegUDBD alone, two chains (A and B) in the asymmetric unit; crystals from 22% PEG 3350, 0.1 M Tris pH 8.0, 18 °C; 2.39 Å.
The next series has as its target lmDegUFL (Listeria monocytogenes ATCC 15313, UniProt Q6DL91 1-228). Description: fluorescence polarization; unphosphorylated. The conditions noted are these: protein: recombinant; tags: C-terminal His6; chain copies: 2; blunt. On the technique in general: Polarisation of emitted light reports the rotation of a fluorescent probe.
The target of the next series is lmDegUFL D55E (Listeria monocytogenes ATCC 15313, UniProt Q6DL91 1-228, D55E). Description: fluorescence polarization; affinity not significantly changed vs lmDegUFL. The conditions noted are these: protein: recombinant; tags: C-terminal His6; chain copies: 2; blunt.
The target in the next series is lmDegUFL D55N (Listeria monocytogenes ATCC 15313, UniProt Q6DL91 1-228, D55N). Description: fluorescence polarization; comparable to lmDegUFL. As to conditions: protein: recombinant; tags: C-terminal His6; chain copies: 2; blunt.
The target in the next series is T1, lmDegUDBD (Listeria monocytogenes ATCC 15313, UniProt Q6DL91 159-228).
T1 sequence: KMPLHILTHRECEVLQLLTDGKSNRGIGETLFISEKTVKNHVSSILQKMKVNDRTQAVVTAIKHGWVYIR
Description: fluorescence polarization. As to conditions: protein: recombinant; tags: N-terminal His6 removed by thrombin; chain copies: 2; blunt.

The target in another series is lmDegURD (Listeria monocytogenes ATCC 15313, UniProt Q6DL91 1-143). Description: EMSA; no shift. The conditions noted are these: protein: recombinant; tags: N-terminal His6 removed by TEV; chain copies: 2; blunt.

One may read the stoichiometry N as the number of molecules, sites or subunits per partner or assembly. The Kd is the equilibrium constant for the complex coming apart.

With “DNA-binding domain of Listeria monocytogenes DegU (lmDegUDBD) (from UniProt Q6DL91 159-228) (domain or fragment)”, the stoichiometry N in series [1] and in series [2] was 2 in each case.

B1: fliN-gmaR operator 36-bp dsDNA, fluorescein (dsDNA)
DNA 1: CGAGTAGGTCAAAAGGATTGGGTATGAAGAACCTTT
DNA 2: AAAGGTTCTTCATACCCAATCCTTTTGACCTACTCG
For the molecule B1, the values for the Kd with lmDegUFL and with lmDegUDBD were 0.173 ± 0.026 µM and 6.7 ± 2.3 µM, respectively. Moreover, the binding result in the series with lmDegUFL D55E and with lmDegUFL D55N was “binds” in each case.

B2: fliN-gmaR operator 36-bp dsDNA, unlabeled (dsDNA)
DNA 1: B1 DNA 1
DNA 2: B1 DNA 2
Take B2: the binding result with lmDegURD is “no binding”.
